Literature values as cited in publication PMC7823800.
Read-outs that look alike come from different tables or passages of the source.

Assays:
TNF (Homo sapiens) [1] = biological target: TNF (Homo sapiens) (UniProt P01375)
TNF (Homo sapiens) [2] = biological target: TNF (Homo sapiens) (UniProt P01375); remark: listed apart in the source

Sequence of TNF (Homo sapiens) (P01375 77-233): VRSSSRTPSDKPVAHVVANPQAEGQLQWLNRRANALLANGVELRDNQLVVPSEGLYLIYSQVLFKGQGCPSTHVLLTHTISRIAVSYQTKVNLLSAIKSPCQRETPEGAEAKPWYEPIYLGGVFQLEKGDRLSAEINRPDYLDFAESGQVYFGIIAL
Sequence of CrmB (P0DSV7 23-349): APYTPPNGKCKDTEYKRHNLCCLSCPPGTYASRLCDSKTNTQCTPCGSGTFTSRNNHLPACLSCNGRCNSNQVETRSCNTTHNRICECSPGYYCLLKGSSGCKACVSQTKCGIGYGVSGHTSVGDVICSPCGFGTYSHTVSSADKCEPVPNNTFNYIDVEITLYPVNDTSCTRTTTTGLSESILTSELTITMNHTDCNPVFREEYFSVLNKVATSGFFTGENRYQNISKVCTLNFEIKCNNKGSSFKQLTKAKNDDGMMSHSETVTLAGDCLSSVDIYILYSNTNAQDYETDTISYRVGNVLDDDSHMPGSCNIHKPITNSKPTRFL
Sequence of TNFR2 (P20333 23-461): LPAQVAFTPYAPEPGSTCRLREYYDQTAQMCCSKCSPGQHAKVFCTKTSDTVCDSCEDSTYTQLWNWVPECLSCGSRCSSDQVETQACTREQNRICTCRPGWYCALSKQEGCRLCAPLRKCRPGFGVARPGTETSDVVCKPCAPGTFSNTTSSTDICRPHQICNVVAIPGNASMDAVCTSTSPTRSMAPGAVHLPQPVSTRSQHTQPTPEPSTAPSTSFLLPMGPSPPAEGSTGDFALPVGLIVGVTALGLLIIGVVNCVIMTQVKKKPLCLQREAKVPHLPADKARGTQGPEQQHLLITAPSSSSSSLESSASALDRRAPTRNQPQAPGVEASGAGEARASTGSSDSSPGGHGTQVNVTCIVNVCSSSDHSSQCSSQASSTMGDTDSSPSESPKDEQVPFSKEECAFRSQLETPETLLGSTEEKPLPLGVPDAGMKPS

Substance | Kd (TNF (Homo sapiens) [1]) [nM] | Kd (TNF (Homo sapiens) [2]) [nM]
TNFR2 (from UniProt P20333) | 0.3 | –
CrmB (from UniProt P0DSV7) | – | 0.28
